Data published in a protein production outcome set (Wang et al. 2014).

Experiment: label from the status in PepcDB records

| Sequence | protein production |
| --- | --- |
| MTQMKIFVIGAHGQIGKKIVSKLVAQGDQVYAGIRQPEQAEAFEDAGAQPVQFNLMAQPEDLALAFNGMDAIVFAAGSGGQTGYDMTLMIDLDGAVKSMVAAKIAGVKRYVIISAEFTPDRSRWPRALQPYYVAKYYADEWLKNRTQLDYTILQPGTLINDAGTGKVTVNPDVGGEITRDDVATFTVQTLHTPATVGKTIALINGDTPISKAVQQA | failed |
| MTQNVLNERPAGQKPVALSSFRGCINGLYGDVLQGWAIDITQPDQRPVIEVFVDGASVALARADQHEPNAPHGDHFHGFTVQLRQSLLADANRITAQIANTGIHLEGEIELPSQPPQETAAVASQVWHTGGLRVGGWSWDPQAPHRHVVVTLREGSRVVAQVTCNTHHQALAYRATSDHGFAIDLPWELADGKLHVIEVTNDLGQSLPGSPIRLRCRPEGLEGLLHQLELKPDAAMQALVAEVAKEQSSRLPKSAGWQHYPRWYDAFQKREPIAAIPSRFRPGLLLLSEGDATLEKISLDSLGDDAESVHQLAKAAPADLLPAVEQLLAAGCDSIIQIAAGDKLAPRAMAQLRNLLEEGCAWAYADCDRDGPQGQRSQPWFKPVWDIDLFIGADIFSTGAIFSAAIVKEALALLKAGKKQSAINRHDLIAGIALATELNGRSVTHLPRVLYHRSSDTCTSPEQAAPSKQRKDAVAWLCQGLAPGAHVSAVPDYPALLRAHWPLPEQLPRVSLIVPTRDQYKLLHACIEGLLNNTDYPDLEIIVVDNQSTDPQTLAYLAELKQRGVKILAHPHPFNYSTINNRAASAATGELIGLVNNDIEIIESGWLKEMVSQALRPGIGAVGAKLLWPNRMVQHGGVVVGVNGLAAHAGNTLEQRDAGYLGMNQVTRRQSAVTAACLLLRKSLFDSIQGLDERAFPVAFNDVDLCLRIHELGLRNVWTAFAQLIHAESASRGKDISPEKMARAQREQQLFTERWSVSYRDPYYHPALSLDYLTGPYGGLSLPPEPEYCAPRKLASSETHGHIYLADPS | failed |
| MTQRDTGRLDAIVLAAGRGVRFGGGKLTALLDGDPLVAAALLTAFLAPARRVVVAVGPEPDVRQAVEATATRLLARERLVLVPIDDPSAGMGASLAAAARSLPGDTDGVFVFLGDMPRIDPATPRHLAAALRDPGDIVAPTYLGRRGHPVLFGARWAPVLGALSGDEGARAIVDKAGESLVLVPVDDPGVHLDVDRPSDLARVQTDRRTLLEHHHHHH | not failed |
| MTQRRATRRRFLMGCSAIASVGLAGCTGGDESTATDSTPSPTDDGDAEPTTTTDEPPATDTATATPDQEAVETLVSVGGDRVPENMALGPDGGLYFGITAGEVRRVPAAETGATGLSLEDTEQIATLPGAIGVEAAPDGTVYVAVATQDDQAGVWEIPLDGDAAQLVEMGGFPNDIHYDADQERLLVTESQNGVVYAVTTDGERSTWLDDDRLETESFGANGITRDADGDIFVAVTRAPEETGRLLRVPVESDGAAGEPSMFFEGGAIFGADGITSRDGDIYVAANSQNRVVRVTADGTTDVVATADNGLVFPSDVLFRTGDQQESLFICNFANQSPEDGAILRTSVPR | failed |
| MTQSALHTEFGGIAALRDALARRQVSAVELAQSGLDAAQAASGLNAFLHIDPELTLAQARAADAALAAGTAGPLAGIPIAHKDAFVTRGWRTTAGSKMLAGYASPFDATVVERLAEAGAVSLGKLNCDEFAMGSGNENSAYGPVRNPWDTRAVPGGSSGGSAAAVAARLVAAATGTDTGGSVRQPAALCGVSGIKPTYGTVSRYGMIAFGSSLDQAGPLAPSSRDLLELLDVMTGFDPRDATSLQACDGQANESGRVRRGHDAAQAGYDAAGSQPLKGLRIGVPQEYFGAGLAPDVAAAVEAALAQFEQLGAVRVPVSLPRTELAIPAYYVIAPAEASSNLARYDGVRYGHRAAQYGDLNEMISRSRAEGFGDEVKRRILIGTYVLSHGYYDAYYLQAQRLRRLIAQDFQRAFADQCDVIMGPVSPTVAKNIGDNRDDPTADWLADVYTLGVSLAGLPAMSVPCGFGGQDGRRPVGLQIIGNYFDEGRLLALADRYQQVTDWHQRAPVSQDA | failed |
| MTQTGSARFEGDSWDLASSVGLTATMVAAARAVAGRAPGALVNDQFAEPLVRAVGVDFFVRMASGELDPDELAEDEANGLRRFADAMAIRTHYFDNFFLDATRAGIRQAVILASGLDSRAYRLRWPAGTIVFEVDQPQVIDFKTTTLAGLGAAPTTDRRTVAVDLRDDWPTALQKAGFDNAQRTAWIAEGLLGYLSAEAQDRLLDQITAQSVPGSQFATEVLRDINRLNEEELRGRMRRLAERFRRHGLDLDMSGLVYFGDRTDARTYLADHGWRTASASTTDLLAEHGLPPIDGDDAPFGEVIYVSAELKQKHQDTR | not failed |
| MTQVIIDGDACPVTNSIIELTKGTGIFVTVVRSFSHFSTVIQPEHVNIIYVDDGPDAVDYRIVKLVHSDDLVVTQDYGLASLLLNKAKIVMHHKGLEHHHHHH | failed |
